# Source: patent publication US5514538A, “Bicarbonate assay and phosphoenolpyruvate carboxylase enzyme from hyphomicrobium” (Genzyme Limited, priority 1990, dated 1996)
# Counter-ions that a name gives are not always drawn. Like-named read-outs stand apart in the source and are kept apart here.
# What was measured:
# [1] = tested on: PEPC; assay: Effect of calcium and Mg^2+ on PEPC activity; assay type: biochemical, Hyphomicrobium
# [2] = Specific activity of PEPC (malate dehydrogenase/NADH-coupled assay, A340); assay type: biochemical
# Method: (a) Lysis is performed with a solution of Triton X-100, a non-ionic detergent. It is added to resuspended cells (10% w/v) at 1% v/v. Lysis usually takes about 1 to 1.5 hours at 15° to 20° C. Once lysis is complete, the cell debris is removed by centrifugation with the aid of streptomycin sulphate.
# (§1) (b) Column chromatography involves the use of a strong anion exchanger such as Fractogel-TMAE, DEAE sepharose, Q sepharose, DE 52 or QA 52.
# (§2) For a large volume of enzyme solution, the absorption can be is carried out as a batch up-take. The gel also has a batch wash prior to packing into the column for a gradient elution.
# (§3) The gradient is of increasing salt concentration. The active fractions are pooled to give a specific activity of >30 U/mg but some fractions contain enzyme of 60 U/mg protein.
# Lyophilised PEPC powder is obtained, having the following characteristics:
# A 167 mM Tricine. HCl buffer, pH 8.0, containing 16.7 mM MgCl2
# B 20.7 mM sodium bicarbonate in Reagent A
# C 217 mM phosphoenolpyruvate in Reagent A
# D 10 mM NADH solution, the concentration of which is checked in the following way:
# 1 Dispense 0.98 ml of Reagent A into a cuvette and zero a spectrophotometer set at 340 nm with this cuvette
# 2 Add 0.02 ml of Reagent D to this cuvette and mix thoroughly
# E 700 U/ml malate dehydrogenase
# 1 Adjust spectrophotometer to 340 nm and 25° C.
# 2 Prepare a reagent cocktail as follows:
# Into a 50 ml beaker dispense; 46.0 ml Reagent B 1.0 ml Reagent C
# This cocktail is stable for 8 hr when stored at 4° C.
# 3 Dispense 0.94 ml of the reagent cocktail into a cuvette together with 0.02 ml of Reagent D, and 0.02 ml of Reagent E
# Incubate the cuvette in the spectrophotometer at 25° C. to attain temperature equilibration and then establish background rate, if any
# 4 Dilute the enzyme to approximately 1.5 U/ml in reagent A, and initiate the reaction by adding 0.02 ml of this solution to the cuvette
# 5 Calculate the change in absorbance (ΔA/rain) over the linear portion of the reaction [formula]
# [3] = Storage of enzyme on anion exchange gel: recovery and pool specific activity; assay type: physicochemical
# Method: as §1, §2, §3
# If stored for longer, then the recoveries begin to decrease.
# [4] = Stability of reconstituted enzyme with azide; assay type: physicochemical
# Method: The enzyme was stored in assay buffer (167 mM Tricine/HCl with 15 mM MgCl2, pH 8.0).
# [5] = pH stability of enzyme solutions stored at 25° C.; assay type: physicochemical
# Method: For pH 6.0, 8.0 and 9.0, 150 mM Tricine+1 mM MgCl2 was used. For pH 7.0 150 mM bis-tris+1 mM MgCl2 was chosen. Solutions were stored at 25° C.
# [6] = Effect of pH on the enzyme activity (buffers and pH changed); assay type: biochemical
# Description: The effect of pH on the enzyme activity was checked by changing the buffers as well as pH values. Once again, at pH 7 Bis-tris was used.
# [7] = Effect of temperature on the activity of PEPC; assay type: biochemical; conditions: 167 mM tricine pH 7.0, 1 mM MgCl2
# Method: The effect of temperature on the activity of PEPC was evaluated. Lyophilised enzyme was resuspended in 167 mM tricine buffer pH 7.0 containing 1 mM MgCl2 at a concentration of 300 u/l. The enzyme was then assayed at the desired temperature using the recommended reagents.
# [8] = Effect of pH on the activity of PEPC; assay type: biochemical
# Method: The effect of pH on the activity of PEPC was evaluated. Lyophilised enzyme was resuspended (10 mg/ml)) in 167 mM Tricine pH 8.0 (+1 mM MgCl2) and diluted to a concentration of 1 u/ml. The enzyme was then assayed in the following buffer systems. At pH 6.0, 8.0 and 9.0 Tricine (150 mM) was used. At pH 6.5 and 7.0 bis-tris (150 mM) was used.
# [9] = lyophilised
# Method: Stability trials have been conducted on lyophilised enzyme, at 4° C., 25° C. and 37° C.
# All recoveries are based on specific activity to rule out weighing errors.
# [10] = pH 7
# [11] = isolated enzyme
# [12] = tested on: Hyphomicrobium PEPC; assay: Km of Hyphomicrobium PEPC with phosphoenol pyruvate salts; assay type: biochemical; conditions: pH 7.0 and 25° C.
# Method: The Km's of Hyphomicrobium PEPC were checked with both sodium bicarbonate and phosphoenol pyruvate as substrates.
# The result is 0.91 mM for the tricyclohexylammonium salt.
# [13] = tested on: Hyphomicrobium PEPC; conditions: pH 8.0, 167 mM Tricine buffer + 1 mM MgCl2
# Method: The effect of bicarbonate on the activity of PEPC was evaluated at pH 8.0 in 167 mM Tricine buffer+1 mM MgCl2.
# [14] = after anion exchange gradient elution
molecule,measurement,setting,value
[Ca+2] [calcium],effect on PEPC activity,[1]; low concentrations,inhibitory effect
[Mg+2] [Mg^2+],activation of the enzyme,[1],only effective activator of the enzyme
same,"activation, chloride vs sulphate",[1]; chloride compound compared with sulphate,works better as the chloride compound than as the sulphate
phosphoenolpyruvate carboxylase [PEPC],specific activity of pooled active fractions,[2]; [14],> 30 U/mg
same,specific activity of some fractions,[2]; [14],60 U/mg protein
same,Powder activity,[2]; lyophilised PEPC powder,> 10 U/mg
same,Specific activity,[2]; lyophilised PEPC powder,> 25 U/mg Protein
same,Pool S/A,[3]; 0 days stored on gel,37.4 U/mg
same,Total recovery,[3]; 0 days stored on gel,91%
same,Pool S/A,[3]; 2 days stored on gel,33.0 U/mg
same,Total recovery,[3]; 2 days stored on gel,85%
same,Pool S/A,[3]; 4 days stored on gel,28.1 U/mg
same,Total recovery,[3]; 4 days stored on gel,76%
same,Pool S/A,[3]; 8 days stored on gel,26.9 U/mg
same,Total recovery,[3]; 8 days stored on gel,60%
same,loss of activity on gel,[3]; held on the gel overnight,no loss of activity
same,% activity recovered,"[4]; pH 8.0, 4 days, 4° C.",94%
same,% activity recovered,"[4]; pH 8.0, 4 days, 25° C.",104%
same,% activity recovered,"[4]; pH 8.0, 4 days, 37° C.",2%
same,% activity recovered,"[4]; pH 8.0, 7 days, 4° C.",96%
same,% activity recovered,"[4]; pH 8.0, 7 days, 25° C.",92%
same,% activity recovered,"[4]; pH 8.0, 7 days, 37° C.",0%
same,% activity recovered,"[4]; pH 8.0, 14 days, 4° C.",94%
same,% activity recovered,"[4]; pH 8.0, 14 days, 25° C.",93%
same,% activity recovered,"[4]; pH 8.0, 30 days, 4° C.",100%
same,% activity recovered,"[4]; pH 8.0, 30 days, 25° C.",86%
same,% activity recovered,"[4]; pH 8.0, 42 days, 4° C.",105%
same,% activity recovered,"[4]; pH 8.0, 42 days, 25° C.",85%
same,% activity recovered,"[4]; pH 8.0, 63 days, 4° C.",105%
same,% activity recovered,"[4]; pH 8.0, 63 days, 25° C.",66%
same,% activity recovered,"[5]; pH 6, 7 days, Tricine",69%
same,% activity recovered,"[5]; pH 6, 12 days, Tricine",45.5%
same,% activity recovered,"[5]; pH 7, 7 days, bis-tris",99%
same,% activity recovered,"[5]; pH 7, 12 days, bis-tris",78.2%
same,% activity recovered,"[5]; pH 8, 7 days, Tricine",81.8%
same,% activity recovered,"[5]; pH 8, 12 days, Tricine",67.3%
same,% activity recovered,"[5]; pH 9, 7 days, Tricine",78.2%
same,% activity recovered,"[5]; pH 9, 12 days, Tricine",56.4%
same,% activity recovered,[6]; pH 6,65.5%
same,% activity recovered,[6]; pH 6.5,74.5%
same,% activity recovered,"[6]; pH 7.0, Bis-tris",100%
same,% activity recovered,[6]; pH 8.0,88.2%
same,% activity recovered,[6]; pH 9.0,74.5%
same,relative activity,[7]; 20° C.,approximately 10%
same,relative activity,[7]; 50° C.,100%
same,relative activity,[7]; 55° C.,approximately 10%
same,relative activity,"[8]; pH 6.0, Tricine (150 mM)",approximately 70%
same,relative activity,"[8]; pH 6.5, bis-tris (150 mM)",~85%
same,relative activity,"[8]; pH 7.0, bis-tris (150 mM)",~115%
same,relative activity,"[8]; pH 8.0, Tricine (150 mM)",~100%
same,relative activity,"[8]; pH 9.0, Tricine (150 mM)",~90%
same,% activity recovered,"[9]; 0 days, 4° C.",100%
same,% activity recovered,"[9]; 0 days, 25° C.",100%
same,% activity recovered,"[9]; 0 days, 37° C.",100%
same,% activity recovered,"[9]; 3 days, 25° C.",95%
same,% activity recovered,"[9]; 3 days, 37° C.",97%
same,% activity recovered,"[9]; 7 days, 4° C.",83%
same,% activity recovered,"[9]; 7 days, 25° C.",83%
same,% activity recovered,"[9]; 7 days, 37° C.",87%
same,% activity recovered,"[9]; 10 days, 25° C.",94%
same,% activity recovered,"[9]; 10 days, 37° C.",91%
same,% activity recovered,"[9]; 18 days, 4° C.",92%
same,% activity recovered,"[9]; 18 days, 25° C.",88%
same,% activity recovered,"[9]; 18 days, 37° C.",90%
same,% activity recovered,"[9]; 24 days, 25° C.",90%
same,% activity recovered,"[9]; 24 days, 37° C.",87%
same,% activity recovered,"[9]; 50 days, 4° C.",114%
same,% activity recovered,"[9]; 77 days, 4° C.",110%
same,stability and activity,[10],better stability and activity
same,pH profile,[11],broad pH profile
"C=C(OP(=O)(O)O)C(=O)O [tricyclohexylammonium salt, phosphoenol pyruvate]",Km,[12],910 µM
same,"Km, comparison of PEP salts",[12],very similar
"O=C(O)O [bicarbonate, sodium bicarbonate]",Km,[13],1300 µM
same,Km,"[13]; read-out: Km (probable, without dissolved carbon dioxide from the atmosphere)",< 1000 µM
